# Test results from patent publication US20150159134A1, “METHOD FOR PRODUCING RETINAL PIGMENT EPITHELIAL CELLS” (PFIZER LIMITED, priority 2013, published 2015).
# “Also recorded” adds a separate entry of the source.
# B1: activin A: activin pathway activator (protein, UniProt P08476 311-426, looked up)
# Inhibin beta A chain: GLECDGKVNICCKKQFFVSFKDIGWNDWIIAPSGYHANYCEGECPSHIAGTSGSSLSFHSTVINHYRMRGHSPFANLKSCCVPTKLRPMSMLYYDDGQNIIKKDIQNMIVEECGCS
# B2: BMP4/7: recombinant BMP4/7 heterodimer protein, BMP pathway activator (protein, UniProt P12644 293-408; P18075 293-431, looked up)
# Bone morphogenetic protein 4: SPKHHSQRARKKNKNCRRHSLYVDFSDVGWNDWIVAPPGYQAFYCHGDCPFPLADHLNSTNHAIVQTLVNSVNSSIPKACCVPTELSAISMLYLDEYDKVVLKNYQEMVVEGCGCR
# Bone morphogenetic protein 7: STGSKQRSQNRSKTPKNQEALRMANVAENSSSDQRQACKKHELYVSFRDLGWQDWIIAPEGYAAYYCEGECAFPLNSYMNATNHAIVQTLVHFINPETVPKPCCAPTQLNAISVLYFDDSSNVILKKYRNMVVRACGCH
# modifications: heterodimer
# B3: BMP7: BMP pathway activator (protein, UniProt P18075 293-431, looked up)
# Bone morphogenetic protein 7: B2 Bone morphogenetic protein 7
# B4: BMP4: BMP pathway activator (protein, UniProt P12644 293-408, looked up)
# Bone morphogenetic protein 4: B2 Bone morphogenetic protein 4
# Assays:
# Format in all cases: cell-based, human
# WA26 hESCs = experiment: Duration of exposure to activin A (CRALBP immunostaining); details: 100 ng/ml activin A
# Procedure: On Day 9, cells were replated into 96 well CellBind plates coated with Matrigel or Cellstart at a density of 500000 cells/cm^2. The cells were maintained in either DMEM KSRXF alone or DMEM KSRXF supplemented with 100 ng/ml activin A for different lengths of time e.g 3 days, 5 days, 10 days or 18 days. At D9-18, cells were fixed for immunostaining and stained for CRALBP, a marker of RPE cells.
# Shef-1 hESCs [1] = experiment: First replating step with supplemented media (immunocytochemistry, qPCR)
# Excerpt: Cells replated at Day 12 were maintained from Day 9 to Day 12 in DMEM KSRXF alone before replating. […] Mature RPE cells sample obtained by spontaneous differentiation as disclosed in Example 10 (a) was used as a control to compare the similarity between the populations obtained upon the first replating step of directed differentiation and mature RPE cells. 19 days post replating, cells were fixed for immunocytochemistry and samples were collected for qPCR. […] QPCR analysis with a panel of markers also indicated Day 9 to be the optimum time for replating (FIGS. 4C, 4D and 4E). Similar results were obtained when cells were cultured on different matrices e.g Matrigel, Cellstart or Fibronectin before and after replate.
# [2] = test system: induced pluripotent cells (iPSCs); experiment: Directed differentiation of iPSCs (immunostaining); details: following replating at Day 9 in the presence of Activin A
# Procedure: The directed differentiation protocol was performed on induced pluripotent cells (iPSCs). IPSCs were generated from erythroblasts obtained from healthy volunteers and reprogrammed using the CytoTune-iPS Reprogramming kit (Life Technologies, A13780-01/02). IPSCs were seeded in E8 medium at a density of 240000 cells/cm^2 and differentiated to Day 9-19 of the directed differentiation protocol with early replating. Induced cells refer to cells treated with LDN193189/SB-431542 from Day 2 to Day 6 followed by BMP4/7 from Day 6 to Day 9. Uninduced cells are maintained without exposure to both LDN193189/SB-431542 and BMP4/7. Immunostaining was performed for markers of interest. […] Following the second replete step at Day 9-19 and culturing for a period of 45 days, iPSCs derived RPE expressed a panel of RPE markers to similar levels seen in RPE derived by directed differentiation from ES cells as obtained by the protocol of example 8 (see FIGS. 15E, 15F and 15G).
# Shef-1 hESCs [3] = experiment: Induction of RPE markers MITF and PMEL17 by BMP pathway activation (qPCR, immunocytochemistry)
# Procedure: This example illustrates the effect of a BMP pathway activator on RPE marker expression. Shef-1 hESCs were seeded onto Matrigel coated 96-well plates at a density of 125000 cells/cm^2. […] Cells for the uninduced control were left untreated. On Day 6, 100 ng/ml BMP4/7 or 100 ng/ml activin A+10 mM Nicotinamide or nothing was added to the media for 3 days. On Day 9, BMP4/7 or activin A and Nicotinamide were withdrawn and cells were treated with DMEM KSRXF alone for 4 days. Samples were prepared for RNA extraction and qPCR analysis.
# Immunocytochemistry was carried out in 96-well or 384-well format. Media was aspirated and 50 μL 4% paraformaldehyde (PFA) was added to each well and incubated for 35 minutes at room temperature. PFA was aspirated and cells washed 3×100 uL PBS(+/+). Cells were incubated for 1 hour at room temperature in the dark in blocking buffer (PBS(+/+)/5% normal donkey serum (NDS)/0.3% TritonX100). 1° antibodies were made up in PBS(+/+)/1% normal donkey serum (NDS)/0.3% TritonX100. 60 μL 1° antibody solution was added to each well and incubated for 1 hour at room temperature in the dark. Solution was aspirated and cells washed 3×100 uL PBS(+/+). 2° antibodies were made up in PBS(+/+)/1% normal donkey serum (NDS)/0.3% TritonX100. 60 uL 2° antibody solution was added to each well and incubated for 1 hour at room temperature in the dark. […]
# Shef-1 hESCs [4] = experiment: Alternative BMP pathway activators, MITF expression (immunostaining, qPCR); details: Day 13; BMPs Day 6-9: 50-200 ng/ml BMP4/7 heterodimer, 200 ng/ml BMP4, 300 ng/ml BMP7, 100 ng/ml BMP2/6
# Procedure: Shef-1 hESCs were seeded onto Matrigel coated 96-well plates at a density of 125000 cells/cm^2. […] On Day 9, BMPs were withdrawn and cells maintained in DMEM KSRXF alone for 4 days. On Day 13, MITF expression was tested by Immunostaining and qPCR analysis.
molecule,measurement,setting,value
B1,induction of RPE cells differentiation / RPE markers by short exposure,WA26 hESCs,sufficient for inducing RPE cells differentiation; also recorded: sufficient to induce expression of RPE markers
same,"mature RPE marker expression (CRALBP, MERTK) by immunocytochemistry","Shef-1 hESCs [1]; replating at D9, 100 ng/ml activin A, 19 days post replating",optimum and yielded high levels of RPE marker expression
same,RPE marker CRALBP expression (immunostaining),[2],upregulated
B2,expression of RPE markers MITF and PMEL17 (immunocytochemistry),Shef-1 hESCs [3]; LDN193189/SB-431542 followed by BMP4/7,confirmed expression of RPE markers
same,expression of RPE genes MITF and PMEL17 (qPCR),"Shef-1 hESCs [3]; added Day 6 for 3 days after 4 days LDN193189/SB-431542, 100 ng/ml BMP4/7 or 100 ng/ml activin A+10 mM Nicotinamide, vs uninduced or LDN193189/SB-431542 only controls",induced expression of RPE genes
same,survival of replated cells,Shef-1 hESCs [1]; replated into DMEM KSRXF with 100 ng/ml BMP4/7,did not survive
same,MITF expression (immunostaining and qPCR),Shef-1 hESCs [4],induced expression of MITF to a similar level
B3,MITF expression (immunostaining and qPCR),Shef-1 hESCs [4],induced expression of MITF to a similar level
B4,MITF expression (immunostaining and qPCR),Shef-1 hESCs [4],induced expression of MITF to a similar level
